Test results as given in patent publication CN113939539A (BIOSION BIO TECH NANJING CO LTD, dated 2022).

How the values were obtained:
[1] = molecular target: T1, 重组人CSF-1R-his蛋白 (Acro biosystems, Cat#CSR-H5228) (human, UniProt P07333 20-512); assay: BLI (Octet), antibody on AHC sensor, CSF-1R-his in solution
T1 construct: Bought protein; also called human CSF-1R-his; not shown: His tag

[2] = molecular target: T2, 生物素标记的人CSF-1R-Fc蛋白 (human, biotin-labelled (sites not given)); assay: capture ELISA: antibody captured by anti-human IgG, biotin-CSF-1R-Fc in solution
T2 construct: Made in-house; also called human CSF-1R-Fc

[3] = molecular target: T3, 猴CSF-1R-his蛋白 (内部制备, SEQ ID NO: 62) (monkey (cynomolgus), UniProt P07333 20-517 (human entry), limits assumed); assay: indirect ELISA on coated monkey CSF-1R-his
T3 construct: Made in-house, coated in the indirect ELISA; also called monkey CSF-1R-his (in-house)
T3 chain: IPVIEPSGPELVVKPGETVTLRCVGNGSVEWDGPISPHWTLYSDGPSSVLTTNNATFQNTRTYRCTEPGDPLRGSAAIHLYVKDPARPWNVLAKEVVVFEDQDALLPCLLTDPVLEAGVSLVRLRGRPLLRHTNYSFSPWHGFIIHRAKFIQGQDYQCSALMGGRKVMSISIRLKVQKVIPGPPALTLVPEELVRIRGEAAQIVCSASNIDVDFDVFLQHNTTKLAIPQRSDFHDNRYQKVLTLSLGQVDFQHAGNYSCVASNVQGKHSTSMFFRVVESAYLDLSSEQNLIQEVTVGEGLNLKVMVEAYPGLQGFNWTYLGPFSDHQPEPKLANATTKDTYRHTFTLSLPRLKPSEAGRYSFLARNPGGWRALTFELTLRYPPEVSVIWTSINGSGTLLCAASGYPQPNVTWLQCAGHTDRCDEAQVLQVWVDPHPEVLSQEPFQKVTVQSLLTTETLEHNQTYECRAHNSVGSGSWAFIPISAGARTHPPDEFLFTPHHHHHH

T2 sequence (chain, as listed by the source limits assumed): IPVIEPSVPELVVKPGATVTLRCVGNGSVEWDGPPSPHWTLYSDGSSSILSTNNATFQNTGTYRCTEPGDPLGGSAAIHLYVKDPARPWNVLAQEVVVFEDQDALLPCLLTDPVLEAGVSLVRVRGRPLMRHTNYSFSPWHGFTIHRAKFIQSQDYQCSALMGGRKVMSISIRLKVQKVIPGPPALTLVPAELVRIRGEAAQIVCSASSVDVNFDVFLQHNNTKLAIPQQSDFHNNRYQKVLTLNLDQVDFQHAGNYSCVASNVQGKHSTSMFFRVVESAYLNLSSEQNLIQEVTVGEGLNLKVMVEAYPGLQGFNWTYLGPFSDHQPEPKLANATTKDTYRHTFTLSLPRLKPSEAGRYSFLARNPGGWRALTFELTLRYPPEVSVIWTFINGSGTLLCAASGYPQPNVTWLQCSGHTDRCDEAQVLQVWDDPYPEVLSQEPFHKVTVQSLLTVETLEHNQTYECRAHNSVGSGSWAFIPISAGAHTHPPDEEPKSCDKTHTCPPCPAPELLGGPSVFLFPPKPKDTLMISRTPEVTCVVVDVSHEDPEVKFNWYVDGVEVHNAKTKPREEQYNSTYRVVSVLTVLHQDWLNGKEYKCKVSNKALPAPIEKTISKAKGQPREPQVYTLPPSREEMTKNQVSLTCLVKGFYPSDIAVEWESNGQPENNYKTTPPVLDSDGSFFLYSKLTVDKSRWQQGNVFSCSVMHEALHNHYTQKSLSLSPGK
T1 sequence (P07333 20-512 limits assumed): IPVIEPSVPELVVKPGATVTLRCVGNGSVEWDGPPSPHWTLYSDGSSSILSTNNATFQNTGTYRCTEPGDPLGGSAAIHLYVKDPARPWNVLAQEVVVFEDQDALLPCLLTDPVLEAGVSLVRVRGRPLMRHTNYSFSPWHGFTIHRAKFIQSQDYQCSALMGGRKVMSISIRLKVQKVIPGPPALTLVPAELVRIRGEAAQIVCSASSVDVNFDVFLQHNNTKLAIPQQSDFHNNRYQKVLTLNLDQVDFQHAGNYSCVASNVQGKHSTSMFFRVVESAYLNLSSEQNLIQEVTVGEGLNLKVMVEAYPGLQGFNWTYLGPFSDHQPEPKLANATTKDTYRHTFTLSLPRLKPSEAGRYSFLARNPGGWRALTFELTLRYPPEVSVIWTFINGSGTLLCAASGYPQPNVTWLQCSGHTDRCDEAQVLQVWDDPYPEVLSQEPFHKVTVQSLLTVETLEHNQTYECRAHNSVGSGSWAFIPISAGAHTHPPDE

binding result [1]: binds
binding result [2]: binds
binding result [3]: binds
B1: 卡比利珠单抗 (antibody, human IgG4 S228P, kappa, V domains shown)
VH: QVQLVQSGAEVKKPGSSVKVSCKASGYTFTDNYMIWVRQAPGQGLEWMGDINPYNGGTTFNQKFKGRVTITADKSTSTAYMELSSLRSEDTAVYYCARESPYFSNLYVMDYWGQGTLVTVSS
VL: NIVLTQSPATLSLSPGERATLSCKASQSVDYDGDNYMNWYQQKPGQAPRLLIYAASNLESGIPARFSGSGSGTDFTLTISSLEPEDFAVYYCHLSNEDLSTFGGGTKVEIKR
notes: Made in-house; also called Cabiralizumab; 对照基准物
